Reference: patent US20160280792A1 (Kyowa Kirin, published 2016)

How the values were obtained:
[1] = biological target: T1, IL-3Rα/GM-CSFRα chimeric protein, A domain of IL-3Rα replaced by that of GM-CSFRα, on HEK293T cells (human, UniProt P15509 23-114); experiment: flow cytometry, labelled antibody at 1 µg/ml, HEK293T cells expressing the construct
T1 construct: domain: A domain; The KpnI site (GGTACC) at the junction encodes an extra Gly-Thr; also called A domain substitution
T1 sequence: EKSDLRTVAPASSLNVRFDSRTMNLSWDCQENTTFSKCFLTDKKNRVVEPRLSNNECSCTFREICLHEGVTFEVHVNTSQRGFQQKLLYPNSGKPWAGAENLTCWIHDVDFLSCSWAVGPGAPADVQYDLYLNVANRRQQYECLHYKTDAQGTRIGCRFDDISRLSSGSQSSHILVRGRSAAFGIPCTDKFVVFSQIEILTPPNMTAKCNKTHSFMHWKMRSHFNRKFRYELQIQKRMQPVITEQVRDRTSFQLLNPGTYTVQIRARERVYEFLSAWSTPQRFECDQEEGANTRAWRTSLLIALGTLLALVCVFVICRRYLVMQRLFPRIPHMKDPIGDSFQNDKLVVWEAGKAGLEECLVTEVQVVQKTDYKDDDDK
Description: HEK293T cell (ATCC CRL 1268) was used for the preparation of the IL-3Rα/GM-CSFRα chimeric protein expression cell. Using 293Fectin (Invitrogen), the plasmid DNA obtained in the above was introduced as an expression vector into the HEK293T. The HEK293T to which the expression vector was introduced was cultured using a shaker under conditions of 5% CO₂ and 37° C. after 2 days of the introduction, the […] was used for in the flow cytometry analysis.
From 100,000 to 1,000,000 cells of the chimeric protein expression cell were allowed to react for 30 minutes on ice with at a concentration of 1 μg/ml with an AlexaFlour488-labeled human antibody or a commercially available FITC-labeled anti-IL-3Rα mouse antibody (7G3 or 9F5: both from BD Biosciences, 6H6: Acris Antibodies, AC145: Milteny Biotech, 107D2.08: Dendritics). A staining medium (Dulbecco's PBS supplemented with 2% fetal bovine serum, 2 mM EDTA and 0.05% NaN₃) was used for the dilution of antibodies and cells. Next, the cells reacted with antibodies were washed three times with the staining medium and whether the labeled antibody bound to the cell was confirmed by flow cytometry.

[2] = biological target: T2, IL-3Rα/GM-CSFRα chimeric protein, region 1 (55-DADYSMP-61) of IL-3Rα replaced by GM-CSFRα sequence, on … (human, UniProt P26951 19-378); experiment: as above
T2 construct: Built on IL-3RA-FLAG/pEGFP-N1; they are my translation of the primers; also called Region 1 (A)
T2 chain: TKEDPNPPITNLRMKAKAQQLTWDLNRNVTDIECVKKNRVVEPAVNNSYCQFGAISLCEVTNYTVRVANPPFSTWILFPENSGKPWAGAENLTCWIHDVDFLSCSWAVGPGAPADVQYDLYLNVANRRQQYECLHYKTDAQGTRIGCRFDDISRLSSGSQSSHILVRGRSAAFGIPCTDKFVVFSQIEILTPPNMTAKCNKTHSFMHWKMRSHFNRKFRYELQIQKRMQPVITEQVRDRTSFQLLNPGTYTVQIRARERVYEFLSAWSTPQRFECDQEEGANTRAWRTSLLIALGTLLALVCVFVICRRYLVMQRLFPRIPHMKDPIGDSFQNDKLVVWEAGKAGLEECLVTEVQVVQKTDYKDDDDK

[3] = biological target: T3, soluble form of human IL-3Rα protein (extracellular region with C-terminal FLAG tag) (human, UniProt P26951 19-305); experiment: SPR (Biacore 2000): antibody captured on anti-mouse antibody CM5 chip, soluble IL-3Rα as analyte, 1:1 Langmuir fit
T3 construct: Made in CHOras1 cells, purified on anti-FLAG gel; also called soluble form of IL-3Rα protein; soluble form of human IL-3Rα extracellular region
T3 sequence: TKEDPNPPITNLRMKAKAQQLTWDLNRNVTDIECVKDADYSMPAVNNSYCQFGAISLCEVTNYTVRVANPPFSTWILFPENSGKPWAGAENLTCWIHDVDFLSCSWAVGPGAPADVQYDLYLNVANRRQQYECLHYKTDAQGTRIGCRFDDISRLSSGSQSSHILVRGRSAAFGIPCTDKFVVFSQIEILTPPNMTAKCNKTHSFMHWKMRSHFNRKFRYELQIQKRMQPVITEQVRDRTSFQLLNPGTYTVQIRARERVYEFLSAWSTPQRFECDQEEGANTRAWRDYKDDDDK
Description: Specifically, CM5 (research grade) was used for a sensor tip (each GE). Firstly, the CM5 tip was activated by applying an equivalent mixture of 400 mM EDC (N-ethyl-N′-(3-dimethylaminopropyl)carbodiimidehydrochloride) and 100 mM NHS (N-hydroxysuccinimide) to the CM5 tip. Next, an antibody to the human antibody attached to the Human Antibody Capture Kit (GE) (hereinafter, referred to as anti-human antibody antibody) was diluted with the solution attached to the kit and applied thereto, thereby immobilizing the required amount of the anti-human antibody antibody to the CM5 tip. Regarding the mouse antibody to be used as a control, an antibody to the mouse antibody attached to the Mouse Antibody Capture Kit (GE) (hereinafter, referred to as anti-mouse antibody antibody) was diluted with the solution attached to the kit and applied thereto, thereby immobilizing a necessary amount thereof to the CM5 tip. […]
In the analysis, Biaevaluation software (GE) was used and Biaevaluation Software Handbook was referred. Specifically, by carrying out simultaneous analysis of kinetics analysis, employing basically the 1:1 Langmuir binding reaction model and fitting, association rate constant (Ka) and dissociation rate constant (Kd) were calculated, and the value of dissociation constant KD was calculated by the calculation of Kd/Ka.

- binding result [1]: no binding (tested: 1 µg/ml)
- binding result [2]: no binding (tested: 1 µg/ml)
- Kd [3]: 0.566 nM
B1: anti-human IL-3Rα mouse antibody 7G3 (antibody, V domains shown)
VH: EVQLQQSGPELVKPGASVKMSCKASGYTFTDYYMKWVKQSHGKSLEWIGDIIPSNGATFYNQKFKGKATLTVDRSSSTAYMHLNSLTSEDSAVYYCTRSHLLRASWFAYWGQGTLVTVSA
VL: DFVMTQSPSSLTVTAGEKVTMSCKSSQSLLNSGNQKNYLTWYLQKPGQPPKLLIYWASTRESGVPDRFTGSGSGTDFTLTISSVQAEDLAVYYCQNDYSYPYTFGGGTKLEIK
notes: Mouse antibody; the material used in flow cytometry was bought (BD Biosciences, FITC-labelled); Light chain start see note of m7; also called 7G3 (Mouse antibodies); FITC-labeled 7G3 (BD Biosciences)
